We go through 38 variants from the Human Domainome abundance scans (Beltran et al. 2025).

± gives the uncertainty stated by the source.

Sequences and labels used below:
B1: POU domain, class 4, transcription factor 2, residues 256 to 327; numbered along this chain, Q12837 (parent)
chain: RDLEAFAERFKQRRIKLGVTQADVGSALANLKIPGVGSLSQSTICRFESLTLSHNNMIALKPILQAWLEEAE

In this data set the parent is B1. In words: abundance fitness (aPCA) (normalised: wild type 0, dead -1); higher = more abundant; growth selection in yeast, the domain comes from the species named. The following applies: Homo sapiens.
For RDLEAFAERFKQRRIKLGVTQADVGSALANLKIPGVGSLSQSTIFRFESLTLSHNNMIALKPILQAWLEEAE [C45F], the abundance fitness was -0.041 ± 0.19.

With RDLEAFAERFKQRRIKLGVTQADVGSALANLKIPGVGSLSQSTILRFESLTLSHNNMIALKPILQAWLEEAE [C45L], the abundance fitness was -0.157 ± 0.057.

With RDLEAFAERFKQRRIKLGVTQADVGSALANLKIPGVGSLSQSTISRFESLTLSHNNMIALKPILQAWLEEAE [C45S], the abundance fitness was determined as 0.065 ± 0.059.

Consider RDLEAFAERFKQRRIKLGVTQADVGSALANLKIPGVGSLSQSTIWRFESLTLSHNNMIALKPILQAWLEEAE [C45W], for which the abundance fitness was -0.431 ± 0.11.

With RDLEAFAERFKQRRIKLGVTQADVGSALANLKIPGVGSLSQSTIERFESLTLSHNNMIALKPILQAWLEEAE [C45E], the abundance fitness was 0.156 ± 0.14.

For the variant RDLEAFAERFKQRRIKLGVTQADVGSALANLKIPGVGSLSQSTIHRFESLTLSHNNMIALKPILQAWLEEAE [C45H], the abundance fitness stood at 0.039 ± 0.11.

On to RDLEAFAERFKQRRIKLGVTQADVGSALANLKIPGVGSLSQSTIGRFESLTLSHNNMIALKPILQAWLEEAE [C45G], for which the abundance fitness is 0.02 ± 0.069.

As to RDLEAFAERFKQRRIKLGVTQADVGSALANLKIPGVGSLSQSTVCRFESLTLSHNNMIALKPILQAWLEEAE [I44V], the abundance fitness is -0.168 ± 0.075.

RDLEAFAERFKQRRIKLGVTQADVGSALANLKIPGVGSLSQSTDCRFESLTLSHNNMIALKPILQAWLEEAE [I44D]: the abundance fitness is -0.771 ± 0.4.

For the variant RDLEAFAERFKQRRIKLGVTQADVGSALANLKIPGVGSLSQSTMCRFESLTLSHNNMIALKPILQAWLEEAE [I44M], the abundance fitness was -0.87 ± 0.18.

On to RDLEAFAERFKQRRIKLGVTQADVGSALANLKIPGVGSLSQSTPCRFESLTLSHNNMIALKPILQAWLEEAE [I44P], for which the abundance fitness is -0.923 ± 0.17.

Take RDLEAFAERFKQRRIKLGVTQADVGSALANLKIPGVGSLSQSTACRFESLTLSHNNMIALKPILQAWLEEAE [I44A]: the abundance fitness is -1 ± 0.17.

In the case of RDLEAFAERFKQRRIKLGVTQADVGSALANLKIPGVGSLSQSTWCRFESLTLSHNNMIALKPILQAWLEEAE [I44W], the abundance fitness is -1.03 ± 0.37.

Consider RDLEAFAERFKQRRIKLGVTQADVGSALANLKIPGVGSLSQSTFCRFESLTLSHNNMIALKPILQAWLEEAE [I44F], for which the abundance fitness was -0.913 ± 0.41.

In the case of RDLEAFAERFKQRRIKLGVTQADVGSALANLKIPGVGSLSQSTCCRFESLTLSHNNMIALKPILQAWLEEAE [I44C], the abundance fitness is -0.643 ± 0.33.

As to RDLEAFAERFKQRRIKLGVTQADVGSALANLKIPGVGSLSQSTRCRFESLTLSHNNMIALKPILQAWLEEAE [I44R], the abundance fitness is -0.973 ± 0.22.

As to RDLEAFAERFKQRRIKLGVTQADVGSALANLKIPGVGSLSQSTSCRFESLTLSHNNMIALKPILQAWLEEAE [I44S], the abundance fitness is -0.963 ± 0.28.

On to RDLEAFAERFKQRRIKLGVTQADVGSALANLKIPGVGSLSQSTKCRFESLTLSHNNMIALKPILQAWLEEAE [I44K], for which the abundance fitness is -0.065 ± 0.23.

On to RDLEAFAERFKQRRIKLGVTQADVGSALANLKIPGVGSLSQSTYCRFESLTLSHNNMIALKPILQAWLEEAE [I44Y], for which the abundance fitness is -0.019 ± 0.39.

On to RDLEAFAERFKQRRIKLGVTQADVGSALANLKIPGVGSLSQSTECRFESLTLSHNNMIALKPILQAWLEEAE [I44E], for which the abundance fitness is -0.652 ± 0.37.

Regarding RDLEAFAERFKQRRIKLGVTQADVGSALANLKIPGVGSLSQSTLCRFESLTLSHNNMIALKPILQAWLEEAE [I44L], the abundance fitness is -0.392 ± 0.087.

Take RDLEAFAERFKQRRIKLGVTQADVGSALANLKIPGVGSLSQSTICRFGSLTLSHNNMIALKPILQAWLEEAE [E48G]: the abundance fitness is -0.594 ± 0.12.

Consider RDLEAFAERFKQRRIKLGVTQADVGSALANLKIPGVGSLSQSTICRFASLTLSHNNMIALKPILQAWLEEAE [E48A], for which the abundance fitness was -0.802 ± 0.13.

On to RDLEAFAERFKQRRIKLGVTQADVGSALANLKIPGVGSLSQSTICRMESLTLSHNNMIALKPILQAWLEEAE [F47M], for which the abundance fitness was -0.781 ± 0.17.

On to RDLEAFAERFKQRRIKLGVTQADVGSALANLKIPGVGSLSQSTICRDESLTLSHNNMIALKPILQAWLEEAE [F47D], for which the abundance fitness was -0.82 ± 0.35.

As for RDLEAFAERFKQRRIKLGVTQADVGSALANLKIPGVGSLSQSTICRWESLTLSHNNMIALKPILQAWLEEAE [F47W], the abundance fitness is -0.836 ± 0.12.

For RDLEAFAERFKQRRIKLGVTQADVGSALANLKIPGVGSLSQSTICRAESLTLSHNNMIALKPILQAWLEEAE [F47A], the abundance fitness was -0.278 ± 0.17.

With RDLEAFAERFKQRRIKLGVTQADVGSALANLKIPGVGSLSQSTICRQESLTLSHNNMIALKPILQAWLEEAE [F47Q], the abundance fitness is -0.59 ± 0.18.

Turning to RDLEAFAERFKQRRIKLGVTQADVGSALANLKIPGVGSLSQSTICRRESLTLSHNNMIALKPILQAWLEEAE [F47R], the abundance fitness is -0.864 ± 0.094.

On to RDLEAFAERFKQRRIKLGVTQADVGSALANLKIPGVGSLSQSTICRNESLTLSHNNMIALKPILQAWLEEAE [F47N], for which the abundance fitness was -0.871 ± 0.37.

Consider RDLEAFAERFKQRRIKLGVTQADVGSALANLKIPGVGSLSQSTICRVESLTLSHNNMIALKPILQAWLEEAE [F47V], for which the abundance fitness was -1.06 ± 0.3.

Take RDLEAFAERFKQRRIKLGVTQADVGSALANLKIPGVGSLSQSTICRGESLTLSHNNMIALKPILQAWLEEAE [F47G]: the abundance fitness was -0.834 ± 0.16.

Take RDLEAFAERFKQRRIKLGVTQADVGSALANLKIPGVGSLSQSTICRSESLTLSHNNMIALKPILQAWLEEAE [F47S]: the abundance fitness is -0.996 ± 0.15.

With RDLEAFAERFKQRRIKLGVTQADVGSALANLKIPGVGSLSQSTICRTESLTLSHNNMIALKPILQAWLEEAE [F47T], the abundance fitness was -0.922 ± 0.14.

With RDLEAFAERFKQRRIKLGVTQADVGSALANLKIPGVGSLSQSTICRPESLTLSHNNMIALKPILQAWLEEAE [F47P], the abundance fitness is -0.897 ± 0.19.

Regarding RDLEAFAERFKQRRIKLGVTQADVGSALANLKIPGVGSLSQSTICRCESLTLSHNNMIALKPILQAWLEEAE [F47C], the abundance fitness was -0.214 ± 0.24.

Turning to RDLEAFAERFKQRRIKLGVTQADVGSALANLKIPGVGSLSQSTICRIESLTLSHNNMIALKPILQAWLEEAE [F47I], the abundance fitness is -0.67 ± 0.38.

Take RDLEAFAERFKQRRIKLGVTQADVGSALANLKIPGVGSLSQSTICRYESLTLSHNNMIALKPILQAWLEEAE [F47Y]: the abundance fitness is -0.53 ± 0.15.
